# Experimental data reported in patent publication US20070282095A1 (published 2007).
# Columns and labels:
# [1] = molecular target: 77E203A205G thrombin (lysine 77 to glutamic acid, glycine 203 to alanine, serine 205 to glycine in B chain) (human, UniProt P00734 315-363; P00734 364-622); test: IAsys biosensor, FAST FIT program; derivative immobilized
# Experimental: (§1) Subsequently, 0.2 ml of 1 M ethanol amine (pH 8) was added thereto to perform a blocking treatment.
# [2] = molecular target: 203A205G thrombin (glycine at position 203 in B chain substituted by alanine, serine at position 205 … (human, UniProt P00734 315-363; P00734 364-622); test: as above
# Experimental: as §1
binder,measurement,setting,value
"fibrinogen (other, also called Fbgn) chain 1: ADSGEGDFLAEGGGVRGPRVVERHQSACKDSDWPFCSDEDWNYKCPSGCRMKGLIDEVNQDFTNRINKLKNSLFEYQKNNKDSHSLTTNIMEILRGDFSSANNRDNTYNRVSEDLRSRIEVLKRKVIEKVQHIQLLQKNVRAQLVDMKRLEVDIDIKIRSCRGSCSRALAREVDLKDYEDQQKQLEQVIAKDLLPSRDRQHLPLIKMKPVPDLVPGNFKSQLQKVPPEWKALTDMPQMRMELERPGGNEITRGGSTSYGTGSETESPRNPSSAGSWNSGSSGPGSTGNRNPGSSGTGGTATWKPGSSGPGSTGSWNSGSSGTGSTGNQNPGSPRPGSTGTWNPGSSERGSAGHWTSESSVSGSTGQWHSESGSFRPDSPGSGNARPNNPDWGTFEEVSGNVSPGTRREYHTEKLVTSKGDKELRTGKEKVTSGSTTTTRRSCSKTVTKTVIGPDGHKEVTKEVVTSEDGSDCPEAMDLGTLSGIGTLDGFRHRHPDEAAFFDTASTGKTFPGFFSPMLGEFVSETESRGSESGIFTNTKESSSHHPGIAEFPSRGKSSSYSKQFTSSTSYNRGDSTFESKSYKMADEAGSEADHEGTHSTKRGHAKSRPV chain 2: QGVNDNEEGFFSARGHRPLDKKREEAPSLRPAPPPISGGGYRARPAKAAATQKKVERKAPDAGGCLHADPDLGVLCPTGCQLQEALLQQERPIRNSVDELNNNVEAVSQTSSSSFQYMYLLKDLWQKRQKQVKDNENVVNEYSSELEKHQLYIDETVNSNIPTNLRVLRSILENLRSKIQKLESDVSAQMEYCRTPCTVSCNIPVVSGKECEEIIRKGGETSEMYLIQPDSSVKPYRVYCDMNTENGGWTVIQNRQDGSVDFGRKWDPYKQGFGNVATNTDGKNYCGLPGEYWLGNDKISQLTRMGPTELLIEMEDWKGDKVKAHYGGFTVQNEANKYQISVNKYRGTAGNALMDGASQLMGENRTMTIHNGMFFSTYDRDNDGWLTSDPRKQCSKEDGGGWWYNRCHAANPNGRYYWGGQYTWDMAKHGTDDGVVWMNWKGSWYSMRKMSMKIRPFFPQQ chain 3: YVATRDNCCILDERFGSYCPTTCGIADFLSTYQTKVDKDLQSLEDILHQVENKTSEVKQLIKAIQLTYNPDESSKPNMIDAATLKSRKMLEEIMKYEASILTHDSSIRYLQEIYNSNNQKIVNLKEKVAQLEAQCQEPCKDTVQIHDITGKDCQDIANKGAKQSGLYFIKPLKANQQFLVYCEIDGSGNGWTVFQKRLDGSVDFKKNWIQYKEGFGHLSPTGTTEFWLGNEKIHLISTQSAIPYALRVELEDWNGRTSTADYAMFKVGPEADKYRLTYAYFAGGDAGDAFDGFDFGDDPSDKFFTSHNGMQFSTWDNDNDKFEGNCAEQDGSGWWMNKCHAGHLNGVYYQGGTYSKASTPNGYDNGIIWATWKTRWYSMKKTTMKIIPFNRLTIGEGQQHHLGGAKQAGDV",Kd,[1],190 nM
same,Kd,[2],10.8 nM
